Results taken from patent publication US10077436B2, “Beta-glucosidase enzymes for increased biomass saccharification” (Edeniq, Inc., priority 2013, dated 2018).

Assays:
Type in all cases: biochemical
[1] = BG activity assay / kinetics using pNPG substrate; conditions: all conditions except initial glucose 36 g/L
Method: BG activity assay using pNPG is one of the two commonly used standard assays to measure BG activity, which utilizes hydrolysis of p-nitrophenyl-β-D-glucopyranoside (pNPG) by BG into a yellow colored product, p-nitrophenol (pNP), that has a strong absorbance at 405 nm. One pNPG unit is defined as the amount of enzyme that produces 1 μmol of pNP per min. Briefly, to determine BG activity, 25 μL of diluted enzyme in 200 mM sodium acetate buffer (pH 5.0) was mixed with 25 μL of the same buffer and 25 μL of RO water (or glucose solution for the kinetic study) and the mixture was preincubated at 50° C. for 5 min. […] The reaction was then terminated by adding 100 μL of 0.25 M sodium carbonate, and the amount of pNP produced was determined by measuring absorbance at 405 nm using a predetermined calibration curve. […]
To determine the kinetic properties, a competitive inhibition mechanism was hypothesized as proposed in the literature (Chauve et al, 2010; Krogh et al, 2010). […] The turnover number, Kcat, can be calculated by Equation (2), where [Et] is the total amount of enzyme.
Conventionally, linearization methods can be used to determine the kinetic parameters based on Equation (1). […] Thus, Vmax, Km and Ki can be determined simultaneously from this fitting process, and Km/Ki can then be calculated. Kcat can be obtained by Equation (2) and Kcat/Km can be calculated accordingly.

[2] = BG (cellobiase) activity assay / kinetics using cellobiose substrate, HPLC
Method: BG activity assay using cellobiose is the other standard assay to measure BG or cellobiase activity, which utilizes hydrolysis of cellobiose by cellobiase into two molecules of glucose, the last step of enzymatic hydrolysis of cellulose. One cellobiase unit (commonly termed as CBU) is defined as the amount of enzyme that converts […] of cellobiose or produces 2 μmol of glucose per min. Briefly, to determine BG activity, 25 μL of diluted enzyme in 50 mM citrate buffer (pH 4.8) equilibrated to 50° C. was mixed with 25 μL cellobiose (or cellobiose/glucose mixture for the kinetic study) to start the reaction. The mixture was incubated at 50° C. for 10 min, and the reaction was terminated by incubating the mixture at 99° C. for 5 min. Different methods are available to measure the glucose produced in the assays. For the kinetic study, HPLC was used. […]
The specific activity used here was determined by the initial velocity approach that is required by implementing Michaelis-Menten model (Copeland, 2000). The specific activity was determined by measuring consumption of cellobiose in the first 10 min of reaction and was expressed as μmol min^−1 mg^−1, where mg^−1 means per mg of total protein. The relative activity was determined based on the maximum activity obtained in the absence of initial glucose inhibition.

[3] = BG supplementation of Celluclast in 48-hour saccharification of filter paper; conditions: for optimal CBU/FPU ratio (optimal BG dosage): 10% solid loading, 20% Celluclast loading
Method: Experimental conditions in this example using filter paper substrate was 10% solid loading and 20% Celluclast loading based on glucan content. Different BG dosage based on CBU:FPU (BG activity/total cellulase activity) was tested.
Enhancement of glucose release (Equation 5) and lift of sugar conversion (Equation 6) was compared among various BGs at the optimal dosage over time in FIG. 8.

[4] = BG supplementation of commercial cellulase preparations in corn stover saccharification; conditions: added to commercial enzyme preparation, 50° C.
Description: In this experiment, 10% CTecII per gram glucan and 0.5% HtecII per mass solids was used as a control level for high saccharification of pretreated biomass. The relatively low enzyme dose of 3% Genencor® Trio per gram glucan was used as a base enzyme level to observe increases in saccharification from supplementation with BG enzymes. Enzyme doses of 0.5%, 1% and 2% of HtecII were used in a parallel set of reactions to likewise observe increases in saccharification from supplementation with concentrated extract from yEdQ745, yeast expressing wild type BG and another set of samples supplemented with commercial BG. • BG were used from two sources: wild type BG (yEdQ745) and commercial BG (Nozyme product SP-188). • Commercial cellulase preparations: Novozymes CtecII, Novozymes HtecII and Genencor® Trio. • Biomass used for the experiment: For each reaction 3 gms from Run 177 corn stover at 10% final solid concentration. • BG addition: 2 mL of wild type BG concentrated from yEdQ745 (11× concentrated) was added to the respective reaction. • Commercial BG: 1 uL/gm of biomass • Buffer: sodium citrate buffer pH5.0 was used for the reaction • Saccharification temperature: 50° C./24 and 48 hours.

B1: yEdQ885-BG: improved (modified) in-house beta-glucosidase mutant secreted by yeast strain yEdQ885 (protein)
chain: MRFTLIEAVALTAVSLASADELAYSPPYYPSPWANGQGDWAQAYQRAVDIVSQMTLDEKVNLTTGTGWELELCVGQTGGVPRLGVPGMCLQDSPLGVRDSDYNSAFPAGMNVAATWDKNLAYLRGKAMGQEFSDKGADIQLGPAAGPLGRSPDGGRNWEGFSPDPALSGVLFAETIKGIQDAGVVATAKHYIAYEQEHFRQAPEAQGFGFNISESGSANLDDKTMHELYLWPFADAIRAGAGAVMCSYNQINNSYGCQNSYTLNKLLKAELGFQGFVMSDWAAHHAGVSGALAGLDMSMPGDVDYDSGTSYWGTNLTISVLNGTVPQWRVDDMAVRIMAAYYKVGRDRLWTPPNFSSWTRDECGYKYYYVSEGPFEKVNQYVNVQRNHSELIRRIGADSTVLLKNDGALPLTGKERLVALIGEDAGSNPYGANGCSDRGCDNGTLAMGWGSGTANFPYLVTPEQAISNEVLKHKNGVFTATDNWAIDQIEALAKTASVSLVFVNADSGEGYINVDGNLGDRRNLTLWRNGDNVIKAAASNCNNTIVVIHSVGPVLVNEWYDNPNVTAILWGGLPGQESGNSLADVLYGRVNPGAKSPFTWGKTREAYQDFLVTEPNNGNGAPQEDFVEGVFIDYRGFDKRNETPIYEFGYGLSYTTFNYSNLEVQVLSAPAYEPASGETEAAPTFGEVGNASDYLYPSGLQRITKFIYPWLNGTDLEASSGDASYGQDSSDYLPEGATDGSAQPILPAGGGPGGNPRLYDELIRVSVTIKNTGKVAGDEVPQLYVSLGGPNEPKIVLRQFERITLQPSEETKWSTTLTRRDLANWNVEKQDWEITSYPKMVFVGSSSRKLPLRASLPTVH
modifications: synthetic mutant beta-glucosidase (BG), BG acid/base mutant #8, yEdQ885 -> Y363C/Y375F/A446A/V498V/G510G/Y560Y/Y610F
- specific activity towards pNPG, comparison [1]: higher specific activity towards pNPG than both yEdQ745-BG (wild type) and S-BG
- specific activity towards cellobiose, comparison ([2]; absence of glucose inhibition): higher specific activity towards cellobiose than both yEdQ745-BG (wild type) and S-BG
- optimal CBU/FPU ratio (optimal BG dosage) [3]: 2
- performance in enhancing saccharification, comparison ([3]; optimal BG dosage): outperformed the other three BGs
- enhancement of sugar release ([3]; optimal BG dosage, up to 48 h): more than 50%
- lift of sugar conversion ([3]; optimal BG dosage, up to 48 h): more than 13%

B2: yEdQ745-BG: wild type Aspergillus niger beta-glucosidase (Accession CAB75696.1, SEQ ID NO:2) secreted by yeast strain yEdQ745 (protein)
chain: MRFTLIEAVALTAVSLASADELAYSPPYYPSPWANGQGDWAQAYQRAVDIVSQMTLDEKVNLTTGTGWELELCVGQTGGVPRLGVPGMCLQDSPLGVRDSDYNSAFPAGMNVAATWDKNLAYLRGKAMGQEFSDKGADIQLGPAAGPLGRSPDGGRNWEGFSPDPALSGVLFAETIKGIQDAGVVATAKHYIAYEQEHFRQAPEAQGFGFNISESGSANLDDKTMHELYLWPFADAIRAGAGAVMCSYNQINNSYGCQNSYTLNKLLKAELGFQGFVMSDWAAHHAGVSGALAGLDMSMPGDVDYDSGTSYWGTNLTISVLNGTVPQWRVDDMAVRIMAAYYKVGRDRLWTPPNFSSWTRDEYGYKYYYVSEGPYEKVNQYVNVQRNHSELIRRIGADSTVLLKNDGALPLTGKERLVALIGEDAGSNPYGANGCSDRGCDNGTLAMGWGSGTANFPYLVTPEQAISNEVLKHKNGVFTATDNWAIDQIEALAKTASVSLVFVNADSGEGYINVDGNLGDRRNLTLWRNGDNVIKAAASNCNNTIVVIHSVGPVLVNEWYDNPNVTAILWGGLPGQESGNSLADVLYGRVNPGAKSPFTWGKTREAYQDYLVTEPNNGNGAPQEDFVEGVFIDYRGFDKRNETPIYEFGYGLSYTTFNYSNLEVQVLSAPAYEPASGETEAAPTFGEVGNASDYLYPSGLQRITKFIYPWLNGTDLEASSGDASYGQDSSDYLPEGATDGSAQPILPAGGGPGGNPRLYDELIRVSVTIKNTGKVAGDEVPQLYVSLGGPNEPKIVLRQFERITLQPSEETKWSTTLTRRDLANWNVEKQDWEITSYPKMVFVGSSSRKLPLRASLPTVH
modifications: Aspergillus niger; wild type beta-glucosidase (BG)
- specific activity towards cellobiose, comparison ([2]; all conditions tested): the lowest
- optimal CBU/FPU ratio (optimal BG dosage) [3]: 1
- effect of BG supplementation on glucose release / glucan to glucose conversion [4]: dramatically increased
